Data on four molecules can be found in paper PMC3985883 (Biochemistry, 2014).

As usually defined, the Kd is the free concentration of one partner at which half of the binding sites on the other are occupied at equilibrium, for simple one-to-one binding. As usually defined, the stoichiometry N is the number of molecules, sites or subunits per partner or assembly.

In data set [1] the target is class Ia RNR small subunit (Homo sapiens) (UniProt P31350). The following applies: cited from earlier work.
Data set [2] has as its target class Ia RNR small subunit (Escherichia coli) (UniProt P69924). The note with it: cited from earlier work.
The target of data set [3] is T1, Bacillus subtilis class Ib ribonucleotide reductase NrdE (α subunit) (Bacillus subtilis, UniProt P50620 1-700).
T1 sequence (looked up): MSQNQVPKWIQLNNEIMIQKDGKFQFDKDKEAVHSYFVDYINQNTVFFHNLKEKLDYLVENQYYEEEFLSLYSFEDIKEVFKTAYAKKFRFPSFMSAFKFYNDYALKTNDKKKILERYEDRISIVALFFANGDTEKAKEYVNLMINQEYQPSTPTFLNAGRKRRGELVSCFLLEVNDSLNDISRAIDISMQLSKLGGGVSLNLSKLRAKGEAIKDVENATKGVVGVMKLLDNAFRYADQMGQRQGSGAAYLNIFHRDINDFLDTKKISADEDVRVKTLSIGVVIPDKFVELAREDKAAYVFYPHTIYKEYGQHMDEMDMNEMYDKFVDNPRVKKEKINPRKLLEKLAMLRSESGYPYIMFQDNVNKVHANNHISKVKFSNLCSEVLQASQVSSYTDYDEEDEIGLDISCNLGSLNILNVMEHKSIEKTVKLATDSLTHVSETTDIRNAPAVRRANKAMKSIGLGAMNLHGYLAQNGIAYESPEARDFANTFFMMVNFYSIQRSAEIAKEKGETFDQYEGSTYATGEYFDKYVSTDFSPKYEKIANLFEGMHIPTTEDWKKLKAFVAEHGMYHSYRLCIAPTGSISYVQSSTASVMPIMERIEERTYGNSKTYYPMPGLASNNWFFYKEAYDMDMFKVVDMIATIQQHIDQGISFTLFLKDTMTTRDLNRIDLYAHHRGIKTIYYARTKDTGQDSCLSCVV
The data set can be described thus: SEC. (In gel filtration, larger molecules generally elute earlier.)

The data set “SEC” deals with the molecule itself. The data set can be described thus: SEC.
The data set “AUC” concerns the molecule itself. The data set is described as follows: AUC.

class Ia RNR small subunit (Homo sapiens), sequence (P31350 whole entry): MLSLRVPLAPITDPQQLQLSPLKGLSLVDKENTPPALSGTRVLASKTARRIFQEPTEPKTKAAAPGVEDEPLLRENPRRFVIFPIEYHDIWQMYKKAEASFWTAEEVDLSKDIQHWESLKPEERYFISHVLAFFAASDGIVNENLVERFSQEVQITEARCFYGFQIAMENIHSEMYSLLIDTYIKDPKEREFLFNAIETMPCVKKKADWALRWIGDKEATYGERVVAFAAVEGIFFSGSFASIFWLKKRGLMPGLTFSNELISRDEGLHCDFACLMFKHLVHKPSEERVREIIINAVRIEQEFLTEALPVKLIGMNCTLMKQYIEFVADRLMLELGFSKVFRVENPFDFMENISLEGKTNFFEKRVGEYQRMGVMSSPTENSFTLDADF
class Ia RNR small subunit (Escherichia coli), sequence (P69924 2-376): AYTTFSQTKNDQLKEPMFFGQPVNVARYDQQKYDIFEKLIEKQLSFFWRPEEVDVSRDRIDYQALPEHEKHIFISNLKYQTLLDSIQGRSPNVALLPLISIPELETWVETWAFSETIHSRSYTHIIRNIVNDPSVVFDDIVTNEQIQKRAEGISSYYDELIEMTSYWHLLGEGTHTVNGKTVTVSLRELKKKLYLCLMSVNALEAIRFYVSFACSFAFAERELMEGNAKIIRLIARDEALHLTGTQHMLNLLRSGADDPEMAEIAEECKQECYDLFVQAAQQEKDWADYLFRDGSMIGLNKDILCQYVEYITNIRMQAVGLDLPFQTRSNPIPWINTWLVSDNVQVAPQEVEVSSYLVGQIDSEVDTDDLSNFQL

On to “class Ia RNR large subunit (from UniProt P23921)”, for which, in data set [1], the Kd is 0.2 µM.

With “class Ia RNR large subunit (from UniProt P00452)”, the Kd in data set [2] is 0.2 µM.

B1: Bacillus subtilis holo-Fe^III2-Y· NrdF (β subunit, diferric-tyrosyl radical cofactor) (enzyme, UniProt P50621 1-329, looked up)
chain: MTKIYDAANWSKHEDDFTQMFYNQNVKQFWLPEEIALNGDLLTWKYLGKNEQDTYMKVLAGLTLLDTEQGNTGMPIVAEHVDGHQRKAVLNFMAMMENAVHAKSYSNIFMTLAPTETINEVFEWVKQNKYLQKKAQMIVGLYKAIQKDDEISLFKAMVASVYLESFLFYSGFYYPLYFYGQGKLMQSGEIINLILRDEAIHGVYVGLLAQEIYNKQTEEKKAELREFAIDLLNQLYENELEYTEDLYDQVGLSHDVKKFIRYNANKALMNLGFDPYFEEEDINPIVLNGLNTKTKSHDFFSMKGNGYKKATVEPLKDDDFYFEDEKEQI
modifications: tyrosyl radical (about 1 Y· per β2); Fe^III2 cofactor (about 4 Fe per β2)
On to B1, for which, in data set [3], the binding result was “binds”. In “SEC”, the “stoichiometry N” value amounted to 2.

B2: Bacillus subtilis holo-Mn^III2-Y· NrdF (β subunit, dimanganic-tyrosyl radical cofactor) (enzyme, UniProt P50621 1-329, looked up)
chain: B1 chain
modifications: tyrosyl radical (about 1 Y· per β2); Mn^III2 cofactor (about 4 Mn per β2)
On to B2, for which the binding result in data set [3] is “binds”. Besides, the “stoichiometry N” value in “AUC” is 2.
